Experiment [1] deals with T1, hIL-4Rα on cells (human, UniProt P24394 26-825).
T1 sequence: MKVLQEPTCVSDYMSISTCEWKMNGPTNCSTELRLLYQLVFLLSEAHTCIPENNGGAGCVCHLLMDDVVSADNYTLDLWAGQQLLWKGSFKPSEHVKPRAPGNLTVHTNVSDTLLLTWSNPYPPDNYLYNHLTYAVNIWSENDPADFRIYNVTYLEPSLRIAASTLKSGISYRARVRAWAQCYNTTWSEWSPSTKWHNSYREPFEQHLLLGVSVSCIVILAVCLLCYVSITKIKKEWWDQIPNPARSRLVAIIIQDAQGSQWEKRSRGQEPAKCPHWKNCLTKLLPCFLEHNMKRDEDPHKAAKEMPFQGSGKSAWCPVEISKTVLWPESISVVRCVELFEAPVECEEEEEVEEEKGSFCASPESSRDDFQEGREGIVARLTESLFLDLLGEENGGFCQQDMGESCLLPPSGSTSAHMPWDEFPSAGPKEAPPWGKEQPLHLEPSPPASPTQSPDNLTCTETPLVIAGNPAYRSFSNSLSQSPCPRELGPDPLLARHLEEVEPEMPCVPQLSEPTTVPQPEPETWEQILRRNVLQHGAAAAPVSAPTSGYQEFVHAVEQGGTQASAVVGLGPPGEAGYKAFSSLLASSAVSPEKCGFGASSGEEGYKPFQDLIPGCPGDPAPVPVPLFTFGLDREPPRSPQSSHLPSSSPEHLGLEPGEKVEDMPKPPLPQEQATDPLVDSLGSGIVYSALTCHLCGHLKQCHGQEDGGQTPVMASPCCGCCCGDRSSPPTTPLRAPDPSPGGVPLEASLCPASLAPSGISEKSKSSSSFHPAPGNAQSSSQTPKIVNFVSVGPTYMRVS
Description: cell-based or functional assay.

For experiment [2], the target named is T1, hIL-4Rα on cells. Nature of the experiment: cell-based or functional assay. This is another data set of the same source.
The target in experiment [3] is T1, hIL-4Rα on cells. Description: FACS on HEK293 cells, competitor biotin-hIL-13.
Description: (§1) Briefly, HEK293 previously transduced to stably express both hIL-13Rα and hIL-4Rα were cultured and harvested. Cells were seeded at 200,000 cells in 100 uL per well. Cells were washed and the supernatant discarded. […] The cells were stained in this mixture at 4° C. for 1 hour. […] Cells were incubated 4° C. for 1 hour, protected from light. Cells were then washed and the MFI of cells in each well were recorded by FACS using a BD FACSCanto II. Subsequent data were analyzed using GraphPad Prism.
(§2) The values reflect absolute IC₅₀ measurements.
Experiment [4] addresses T1, hIL-4Rα on cells. Nature of the experiment: cell-based or functional assay. This is another data set of the same source.
The target of experiment [5] is T1, hIL-4Rα on cells. Description: FACS on HEK293 cells, competitor biotin-hIL-4.
Description: as §1, §2
In experiment [6] the target is T1, hIL-4Rα on cells. Nature of the experiment: cell-based or functional assay. This is another data set of the same source.
Experiment [7] concerns the target T1, hIL-4Rα on cells. Description: FACS on HEK293 cells, competitor biotin-hIL-13. This is another data set of the same source.
In experiment [8] the target is T1, hIL-4Rα on cells. Description: cell-based or functional assay. This is another data set of the same source.
The target of experiment [9] is T1, hIL-4Rα on cells. Description: cell-based or functional assay. The source holds these as a separate data set.
Experiment [10] deals with T1, hIL-4Rα on cells. Description: FACS on HEK293 cells, competitor biotin-hIL-4. The source holds these as a separate data set.
The target of experiment [11] is T2, human IL-4Rα (human, UniProt P24394 26-232).
T2 construct: also called Hu IL-4Rα; hIL-4Rα
T2 sequence: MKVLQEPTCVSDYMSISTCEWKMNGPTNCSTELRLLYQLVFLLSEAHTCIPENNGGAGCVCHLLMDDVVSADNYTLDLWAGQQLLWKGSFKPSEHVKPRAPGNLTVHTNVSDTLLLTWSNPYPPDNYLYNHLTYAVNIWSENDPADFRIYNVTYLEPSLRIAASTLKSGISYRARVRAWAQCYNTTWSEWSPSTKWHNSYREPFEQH
Nature of the experiment: SPR, Carterra LSA.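 Also: antibodies captured on an anti-human Fc sensor chip, antigen injected at several concentrations, association and dissociation rates fitted with a 1:1 Langmuir model.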

A further experiment addresses T3, cynomolgus monkey IL-4Rα (cynomolgus monkey, UniProt P24394 26-231 (human entry), limits assumed).
T3 construct: also called Cyno IL-4Rα; cyIL-4Rα
T3 chain: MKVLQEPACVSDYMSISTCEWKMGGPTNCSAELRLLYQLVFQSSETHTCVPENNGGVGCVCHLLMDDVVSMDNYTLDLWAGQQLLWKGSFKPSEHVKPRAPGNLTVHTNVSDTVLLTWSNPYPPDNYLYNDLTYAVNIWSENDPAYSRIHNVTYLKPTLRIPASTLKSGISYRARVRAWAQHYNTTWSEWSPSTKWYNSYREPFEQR
Description: SPR, Carterra LSA. (Surface plasmon resonance follows binding to a sensor surface in real time, without labels.)

Experiment [12] deals with T2, human IL-4Rα. Description: KinExA. For orientation: In KinExA the mixture passes briefly over coated beads that capture the unbound partner.
Description: Binding affinity (KD) of exemplary antibodies to human IL-4Rα was determined using the Kinetic Exclusion Assay (KinExA). Briefly, antibody and recombinant human IL-4Rα were equilibrated in solution. […] Samples were incubated for a time period ranging from 3.5 hours to 340 hours, to fully reach equilibrium. Once samples reached equilibrium, azlactone beads previously coated with recombinant human IL-4Rα were used to capture any free antibody from the equilibrated solution. […] The KinExA 4000 instrument was used to capture fluorescent signal and convert to a voltage signal that is directly proportional to the amount of free antibody in all the equilibrated samples, allowing for the determination of the apparent affinity of the antibody.
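For Relative Blockade of IL-13 Binding IC50 in this document: stably transduced cells co-expressing both receptor chains, stained cold, with cell-bound signal read as mean fluorescence intensity by flow cytometry.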
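For Relative Blockade of IL-4 Binding IC50 in this document: HEK293 cells stably co-expressing hIL-13Rα and hIL-4Rα, stained for 1 h at 4 °C, read-out as mean fluorescence intensity by flow cytometry.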

B1: Construct 13 (mAb422) with IgG1 YTE LALA heavy chain constant region (antibody, V domains shown)
VH: EVQLVESGGGLEQPGGSLRLSCAGSGFTFRDFAMTWVRQAPGKGLEWVSSVSGSGGNTYYADSVKGRFTISRDNSKNTLYLQMNSLRAEDTAVYYCAKDRLSVTVRPRYYGLDVWGQGTTVTVSS
VL: DIVMTQSPLSLPVTPGEPASISCRSSQSVLYSIGYNYVDWYLQKSGQSPQLLIYLGNKRASGVPDRFSGSGSGTDFTLKISRVEAEDVGFYYCMQSLTSPYTFGQGTKLEIK
On to B1, for which, in the experiment with hIL-4Rα on cells [1], the “Inhibition of IL-4 induced pSTAT6 IC50” value is 0.185 nM and the “Inhibition of IL-13 induced pSTAT6 IC50” value is 0.612 nM. For the same molecule, in the experiment with hIL-4Rα on cells [2], the “Inhibition of IL-4 induced TF-1 Proliferation IC50” value was 0.038 nM and the “Inhibition of IL-13 induced TF-1 Proliferation IC50” value came out at 0.119 nM. Moreover, the IC50 – broadly, the concentration that gives 50% inhibition – with hIL-4Rα on cells [3] was 0.235 nM. Besides, in the experiment with hIL-4Rα on cells [4], the “Inhibition of IL-4 induced TARC IC50” value turned out to be 0.179 nM and the “Inhibition of IL-13 induced TARC IC50” value amounted to 0.261 nM. The same molecule returned a half-maximal inhibitory concentration (IC50) in the experiment with hIL-4Rα on cells [5] of 0.238 nM.

B2: Construct 31 (mAb443) (antibody, IgG4, V domains shown)
VH: EVQLVESGGGLEQPGGSLRLSCAGSGFTFRDFAMTWVRQAPGKGLEWVSSISGSGGNIYYADSVKGRFTISRDNSKNTLYLQMNSLRAEDTAVYYCAKDRLSVTVRPRYYGLDVWGQGTTVTVSS
VL: DIVMTQSPLSLPVTPGEPASISCRSSQSLLYSNGYNYLDWYLQKSGQSPQLLIYLGSNRASGVPDRFSGSGSGTDFTLKISRVEAEDVGFYYCMQALQAPYTFGQGTKLEIK
notes: VH/VL only
For the molecule B2, in the experiment with hIL-4Rα on cells [6], the “Relative Inhibition of IL-4 induced TARC IC50” value is 1.37 relative to dupilumab and the “Relative Inhibition of IL-13 induced TARC IC50” value was 0.703 relative to dupilumab. Moreover, in the experiment with hIL-4Rα on cells [7], the “Relative Blockade of IL-13 Binding IC50” value was 0.964 relative to dupilumab. Besides, in the experiment with hIL-4Rα on cells [8], the “Relative Inhibition of IL-4 induced TF-1 Proliferation IC50” value was 1.25 relative to dupilumab and the “Relative Inhibition of IL-13 induced TF-1 Proliferation IC50” value is 1.24 relative to dupilumab. In the experiment with hIL-4Rα on cells [9], the “Relative Inhibition of IL-4 induced pSTAT6 IC50” value is 1.23 relative to dupilumab and the “Relative Inhibition of IL-13 induced pSTAT6 IC50” value was 1.61 relative to dupilumab. The “Relative Blockade of IL-4 Binding IC50” value in the experiment with hIL-4Rα on cells [10] was 1.01 relative to dupilumab. Further, in the experiment with human IL-4Rα [11], the “KD Relative to Dupilumab” value is 0.73 and the Kd (commonly the concentration at which binding is half-saturated) was found to be 0.00829 nM. In the experiment with cynomolgus monkey IL-4Rα, the “KD Relative to Dupilumab” value stood at 0.67 and the Kd is 421 nM. In addition, in the experiment with human IL-4Rα [12], the “KD Relative to Dupilumab” value amounted to 0.252 and the dissociation constant (Kd) was 0.000282 nM.

B3: Construct 24 (mAb432) with IgG1 YTE LALA heavy chain constant region (antibody, V domains shown)
VH: EVQLVESGGGLEQPGGSLRLSCAGSGFTFRDFAMTWVRQAPGKGLEWVSSISGSGGNIYYADSVKGRFTISRDNSKNTLYLQMNSLRAEDTAVYYCAKDRLSIAVRPRYYGLDVWGQGTTVTVSS
VL: DIVMTQSPLSLPVTPGEPASISCTASQSLLYSIGKNYVDWYLQKSGQSPQLLIYLGNNRATGVPDRFSGSGSGTDFTLKISRVEAEDVGFYYCMQSLTSPYTFGQGTKLEIK
Take B3: in the experiment with hIL-4Rα on cells [1], the “Inhibition of IL-4 induced pSTAT6 IC50” value was found to be 0.269 nM and the “Inhibition of IL-13 induced pSTAT6 IC50” value turned out to be 1.09 nM. In the experiment with hIL-4Rα on cells [2], the “Inhibition of IL-4 induced TF-1 Proliferation IC50” value was 0.052 nM and the “Inhibition of IL-13 induced TF-1 Proliferation IC50” value was determined as 0.166 nM. For the same molecule, in the experiment with hIL-4Rα on cells [3], the IC50 was 0.234 nM. Moreover, in the experiment with hIL-4Rα on cells [4], the “Inhibition of IL-4 induced TARC IC50” value was 0.222 nM and the “Inhibition of IL-13 induced TARC IC50” value is 0.361 nM. Further, in the experiment with hIL-4Rα on cells [5], the IC50 came out at 0.234 nM.

B4: Construct 38 (mAb471) (antibody, IgG4, V domains shown)
VH: EVQLVESGGGLEQPGGSLRLSCAGSGFTFRDFAMTWVRQAPGKGLEWVSSISGSGGNIYYADSVKGRFTISRDNSKNTLYLQMNSLRAEDTAVYYCAKDRLSVTVRPRYYGLDVWGQGTTVTVSS
VL: DIVMTQSPLSLPVTPGEPASISCRSSQSLLYSIGKNYVDWYLQKSGQSPQLLIYEGNKRASGVPDRFSGSGSGTDFTLKISRVEAEDVGFYYCMQSLTSPYTFGQGTKLEIK
notes: VH/VL only
For the molecule B4, in the experiment with hIL-4Rα on cells [6], the “Relative Inhibition of IL-4 induced TARC IC50” value was 1.17 relative to dupilumab and the “Relative Inhibition of IL-13 induced TARC IC50” value was 1.63 relative to dupilumab. The “Relative Blockade of IL-13 Binding IC50” value in the experiment with hIL-4Rα on cells [7] was 0.996 relative to dupilumab. In the experiment with hIL-4Rα on cells [8], the “Relative Inhibition of IL-4 induced TF-1 Proliferation IC50” value was 1.04 relative to dupilumab and the “Relative Inhibition of IL-13 induced TF-1 Proliferation IC50” value is 1.2 relative to dupilumab. For the same molecule, in the experiment with hIL-4Rα on cells [9], the “Relative Inhibition of IL-4 induced pSTAT6 IC50” value is 0.723 relative to dupilumab and the “Relative Inhibition of IL-13 induced pSTAT6 IC50” value is 1.56 relative to dupilumab. In addition, the “Relative Blockade of IL-4 Binding IC50” value in the experiment with hIL-4Rα on cells [10] was 0.981 relative to dupilumab. In the experiment with human IL-4Rα [11], the “KD Relative to Dupilumab” value is 0.52 and the dissociation constant (Kd) turned out to be 0.00589 nM. In the experiment with cynomolgus monkey IL-4Rα, the “KD Relative to Dupilumab” value stood at 0.4 and the Kd amounted to 249 nM. In the experiment with human IL-4Rα [12], the “KD Relative to Dupilumab” value is 0.376 and the affinity, expressed as Kd, was 0.000421 nM.

Source of the values: patent US20260193366A1 (APOGEE THERAPEUTICS, published 2026).
